Patent publication US7183110B2, “Antibody immunoreactive with a 5-enolpyruvylshikimate-3-phosphate synthase” (Monsanto Technology LLC, priority 1990, dated 2007)

B1: CP4: Class II EPSPS enzyme from Agrobacterium sp. strain CP4 (SEQ ID NO:3) (protein, listed as Agrobacterium sp.)
chain: MSHGASSRPATARKSSGLSGTVRIPGDKSISHRSFMFGGLASGETRITGLLEGEDVINTGKAMQAMGARIRKEGDTWIIDGVGNGGLLAPEAPLDFGNAATGCRLTMGLVGVYDFDSTFIGDASLTKRPMGRVLNPLREMGVQVKSEDGDRLPVTLRGPKTPTPITYRVPMASAQVKSAVLLAGLNTPGITTVIEPIMTRDHTEKMLQGFGANLTVETDADGVRTIRLEGRGKLTGQVIDVPGDPSSTAFPLVAALLVPGSDVTILNVLMNPTRTGLILTLQEMGADIEVINPRLAGGEDVADLRVRSSTLKGVTVPEDRAPSMIDEYPILAVAAAFAEGATVMNGLEELRVKESDRLSAVANGLKLNGVDCDEGETSLVVRGRPDGKGLGNASGAAVATHLDHRIAMSFLVMGLVSENPVTVDDATMIATSFPEFMDLMAGLGAKIELSDTKAA
B2: LBAA: Class II EPSPS enzyme from Achromobacter sp. strain LBAA (SEQ ID NO:5); wild type gene expressed from pMON17201 (protein, listed as Agrobacterium sp.)
chain: MSHSASPKPATARRSEALTGEIRIPGDKSISHRSFMFGGLASGETRITGLLEGEDVINTGRAMQAMGAKIRKEGDVWIINGVGNGCLLQPEAALDFGNAGTGARLTMGLVGTYDMKTSFIGDASLSKRPMGRVLNPLREMGVQVEAADGDRMPLTLIGPKTANPITYRVPMASAQVKSAVLLAGLNTPGVTTVIEPVMTRDHTEKMLQGFGADLTVETDKDGVRHIRITGQGKLVGQTIDVPGDPSSTAFPLVAALLVEGSDVTIRNVLMNPTRTGLILTLQEMGADIEVLNARLAGGEDVADLRVRASKLKGVVVPPERAPSMIDEYPVLAIAASFAEGETVMDGLDELRVKESDRLAAVARGLEANGVDCTEGEMSLTVRGRPDGKGLGGGTVATHLDHRIAMSFLVMGLAAEKPVTVDDSNMIATSFPEFMDMMPGLGAKIELSIL

What was measured:
[1] = tested on: EPSPS enzymes; test: Kinetic characterization of EPSPS enzymes (Km PEP, Ki glyphosate); assay type: biochemical; conditions: for Ki/Km: Ki glyphosate / Km PEP; for Km: Km of the EPSPS enzyme for phosphoenolpyruvate, PEP ranges tested in table footnotes
Experimental: The EPSPS enzymes from these microorganisms were then subjected to further study and analysis.
When the change introduced into the Petunia EPSPS (GA101) was introduced into a number of other EPSPS enzymes, similar changes in kinetics were observed, an elevation of the Ki for glyphosate and of the Km for PEP.
All protein purification procedures were carried out at 3–5° C. EPSPS enzyme assays were performed using either the phosphate release or radioactive HPLC method, as previously described in Padgette et al., 1987, using 1 mM phosphoenol pyruvate (PEP, Boehringer) and 2 mM shikimate-3-phosphate (S3P) substrate concentrations. For radioactive HPLC assays, ^14C-PEP (Amersham) was utilized. S3P was synthesized as previously described in Wibbenmeyer et al. 1988. N-terminal amino acid sequencing was performed by loading samples onto a Polybrene precycled filter in aliquots while drying. Automated Edman degradation chemistry was used to determine the N-terminal protein sequence, using an Applied Biosystems Model 470A gas phase sequencer (Hunkapiller et al., 1983) with an Applied Biosystems 120A PTH analyzer.

[2] = tested on: rabbit anti-EPSPS antibody; test: Western analysis with rabbit anti-EPSPS antibody to the Petunia EPSPS protein; assay type: binding; conditions: crude extracts 50 μg protein; control Petunia EPSPS 20 ng; Protein A-125I development
Text: The presence of EPSPS activity in these extracts was confirmed by enzyme assay. This surprising result, indicating a lack of similarity between the EPSPS's from these bacterial isolates and those previously studied, coupled with the combination of a low Km for PEP and a high Ki for glyphosate, illustrates that these new EPSPS enzymes are different from known EPSPS enzymes (now referred to as Class I EPSPS).

[3] = target: T1, CP4 EPSPS (Agrobacterium sp., UniProt Q9R4E4, S2A); test: EPSPS activity from native and synthetic CP4 EPSPS genes expressed in E. coli; assay type: biochemical, Agrobacterium sp. strain CP4
T1 construct: made in house; host or cells: E. coli, PRecA-gene10L vector
Text: A synthetic CP4 gene was designed to change as completely as possible those inimical sequences discussed above. In summary, the gene sequence was redesigned to eliminate as much as possible the following sequences or sequence features (while avoiding the introduction of unnecessary restriction sites): stretches of G's and C's of 5 or greater; and A+T rich regions (predominantly) that could function as polyadenylation sites or potential RNA destabilization region The sequence of this gene is shown in FIG. 8 (SEQ ID NO:9). This coding sequence was expressed in E. coli from the RecA promoter and assayed for EPSPS activity and compared with that from the native CP4 EPSPS gene. […] The N-terminus of the coding sequence was mutagenized to place an SphI site at the ATG to permit the construction of the CTP2-CP4 synthetic fusion for chloroplast import. The following primer was used to accomplish this mutagenesis:
The EPSPS gene was isolated originally from Agrobacterium sp. strain CP4 and expresses a highly tolerant enzyme. The original gene contains sequences that could be inimical to high expression of the gene in some plants. […] The high G+C % in the CP4 EPSPS gene could also result in the formation of strong hairpin structures that may affect expression or stability of the RNA. A plant preferred version of the gene was synthesized and used for these vectors. This coding sequence was expressed in E. coli from a PRecA-gene10L vector (Olins et al., 1988) and the EPSPS activity was compared with that from the native CP4 EPSPS gene. […] The N-terminus of the coding sequence was then mutagenized to place an SphI site (GCATGC) at the ATG to permit the construction of the CTP2-CP4 synthetic fusion for chloroplast import. This change had no apparent effect on the in vivo activity of CP4 EPSPS in E. coli as judged by complementation of the aroA mutant. A CTP-CP4 EPSPS fusion was constructed between the Arabidopsis thaliana EPSPS CTP (Klee et al., 1987) and the CP4 EPSPS coding sequences. The Arabidopsis CTP was engineered by site-directed mutagenesis to place a SphI restriction site at the CTP processing site. This mutagenesis replaced the Glu-Lys at this location with Cys-Met. The CTP2-CP4 EPSPS fusion was tested for import into chloroplasts isolated from Lactuca sativa using the methods described previously (della-Cioppa et al., 1986: 1987).

[4] = tested on: LBAA EPSPS; test: appKm and appKi of LBAA EPSPS wild type and G100A variant in E. coli crude lysates; assay type: biochemical, Achromobacter sp. strain LBAA; conditions: range of PEP: 2–40 μM
Text: One difference that may be noted between the deduced amino acid sequences of the CP4 and LBAA EPSPS proteins is at position 100 where an Alanine is found in the case of the CP4 enzyme and a Glycine is found in the case of the LBAA enzyme. In the Class I EPSPS enzymes a Glycine is usually found in the equivalent position, i.e Glycine96 in E. coli and K. pneumoniae and Glycine101 in Petunia. In the case of these three enzymes it has been reported that converting that Glycine to an Alanine results in an elevation of the appKi for glyphosate and a concomitant elevation in the appKm for PEP (Kishore et al., 1986; Kishore and Shah, 1988; Sost and Amrhein, 1990), which, as discussed above, makes the enzyme less efficient especially under conditions of lower PEP concentrations. The Glycine100 of the LBAA EPSPS was converted to an Alanine and both the appKm for PEP and the appKi for glyphosate were determined for the variant. The Glycine100Alanine change was introduced by mutagenesis using the following primer:
and both the wild type and variant genes were expressed in E. coli in a RecA promoter expression vector (pMON17201 and pMON17264, respectively) and the appKm's and appKi's determined in crude lysates. […] However, in contrast to the results in the Class I G-A variants, the appKm(PEP) in the Class II (LBAA) G-A variant is unaltered. […]

T1 sequence (Q9R4E4 whole entry S2A): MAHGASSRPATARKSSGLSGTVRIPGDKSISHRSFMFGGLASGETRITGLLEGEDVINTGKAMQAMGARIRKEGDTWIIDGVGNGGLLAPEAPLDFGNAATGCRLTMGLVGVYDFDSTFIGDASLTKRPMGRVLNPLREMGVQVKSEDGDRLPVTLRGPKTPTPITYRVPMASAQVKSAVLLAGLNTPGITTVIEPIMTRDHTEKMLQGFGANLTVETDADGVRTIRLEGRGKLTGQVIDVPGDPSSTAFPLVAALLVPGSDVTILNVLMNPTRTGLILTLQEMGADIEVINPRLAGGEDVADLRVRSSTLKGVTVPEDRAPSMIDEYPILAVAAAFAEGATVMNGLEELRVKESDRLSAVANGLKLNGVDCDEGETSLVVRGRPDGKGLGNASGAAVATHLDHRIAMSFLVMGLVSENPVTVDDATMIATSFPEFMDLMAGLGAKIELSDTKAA

Row | Molecule | Ki/Km [1] | Km [1] | signal in Western analysis with rabbit anti-EPSPS antibody [2] | appKm for PEP ([3]; expressed in E. coli from a PRecA-gene10L vector) | Km ([3]; expressed in E. coli from the RecA promoter, read-out: apparent Km for PEP) | appKm(PEP) [4]
1 | B1 | 227 | 12 µM | no positive signal could be detected | 11.8 µM | 11.8 µM | –
2 | B2 | ~7.9 | 7.3 to 8 µM | no positive signal could be detected | – | – | 5.3 µM
